Assay results as given in patent US8058034B2, “Mutated D-aminotransferase and method for producing optically active glutamic acid derivatives using the same” (Ajinomoto Co., Inc., priority 2002, dated 2011).

Experiments:
[1] = Stability of IHOG in amination reaction solution with no microbial cell addition; type: physicochemical; details: 300 mM 4R,S-IHOG, pH 8.3, 37° C., no cells
Protocol: Another reason therefor would be instability of IHOG, the material for producing monatin, in a certain pH. In order to test stability of IHOG in the amination reaction of IHOG, the present inventors measured a change of IHOG concentration with time in an amination reaction solution of IHOG with no microbial cell addition. The reaction was performed by shaking a test tube containing 1 ml of reaction solution composed of 100 mM potassium phosphate buffer (pH 8.3), 300 mM 4R,S-IHOG, 600 mM DL-Ala and 1 mM pyridoxal-5′-phosphate at 37° C. for 40 hours. As a result, a residual ratio of 4R,S-IHOG was decreased to 81% after 16 hours, 70% after 24 hours and 57% after 40 hours, respectively. […] It is presumed that this phenomenon is due to a decomposition reaction where IHOG is decomposed into 3-indole-pyruvic acid and pyruvic acid and a cyclization reaction of IHOG, to consume IHOG in the reaction solution before being converted to monatin. That is, the reaction catalyzed by the D-aminotransferase derived from the genus Bacillus or Paenibacillus is not sufficiently fast, and a part of IHOG becomes unavailable for the amination due to the decomposition and the cyclization before the amination. This is thought to be one reason why (2R,4R) monatin can not be efficiently produced.

[2] = IHOG amination with washed cells of BMDAT-expressing E. coli (Example 3); type: biochemical; details: 50 mM IHOG, 200 mM D-alanine, pH 8.0, 33° C., 16 hours, cells 2% (w/v)
Protocol: (§1) E. coli transformants with pUCBMDAT were inoculated to 3 mL of LB medium (1 g/dL of bacto tryptone, 0.5 g/dL of yeast extract and 1 g/dL of NaCl) containing 0.1 mg/mL of ampicillin and 0.1 mM isopropyl-1-thio-β-D-galactopyranoside (IPTG). The medium was then cultured with shaking at 37° C. for 16 hours. Cells were collected from the cultured medium and washed to prepare cells of the BMDAT-expressing E. coli.
The microbial cells prepared in (1) above were suspended at 2% (w/v) in 1 mL of a reaction liquid composed of 100 mM Tris-HCl (pH 8.0), 50 mM IHOG, 200 mM D-alanine, 1 mM pyridoxal-5′-phosphate and 0.5% (v/v) toluene. The suspension was then incubated with shaking at 33° C. for 16 hours, and the amount of 2R-monatin thus produced was determined. As a result, 16.4 mM of (2R,4S)-monatin and 17.0 mM of (2R,4R)-monatin were produced.

[3] = PHOG amination with washed cells of BMDAT-expressing E. coli (Example 3); type: biochemical; details: 50 mM PHOG, 200 mM D-alanine, pH 8.0
Protocol: as §1
The reaction was also performed in a reaction liquid composed of 100 mM Tris-HCl (pH 8.0), 50 mM PHOG, 200 mM D-alanine, 1 mM pyridoxal-5′-phosphate and 0.5% (v/v) toluene. The amount of 2R-PHG thus produced after the incubation was determined. As a result, 17.1 mM of (2R,4S)-PHG and 19.2 mM of (2R,4R)-PHG were produced.

[4] = Amination reaction of PHOG with mutated BMDAT-expressing E. coli (Example 5); type: biochemical; details: 50 mM 4R,S-PHOG, 16 hours
Protocol: (§2) E. coli transformants containing each plasmid with mutated BMDAT gene or pUCBMDAT were inoculated to 3 mL of LB medium (1 g/dL of bacto tryptone, 0.5 g/dL of yeast extract and 1 g/dL of NaCl) containing 0.1 mg/mL of ampicillin and 0.1 mM isopropyl-1-thio-β-D-galactopyranoside (IPTG). The medium was then cultured with shaking at 37° C. for 16 hours. Cells were harvested from the cultured medium and washed Expression of each mutated BMDAT was confirmed with SDS-PAGE. Cells harvested form 250 μL of the cultured broth were resuspended in 500 μL of an SDS-PAGE sample buffer and boiled for 10 minutes for cell lysis and denaturation. 5 to 10 μL of the supernatant obtained by centrifugation (10,000×g, 10 min.) was subjected to SDS-PAGE.
(§3) Using a series of mutated BMDAT-expressing E. coli strains prepared in Example 4 as a catalyst, 2R-monatin was produced from 4R,S-IHOG, and 2R-PHG was produced from 4R,S-PHOG. The microbial cells collected by centrifuging 400 μL of the cultured medium were suspended in a reaction solution having the following composition.
Reaction solution of PHOG: 100 mM Tris-HCl (pH 8.0), 50 mM 4R,S-PHOG, 200 mM D-alanine, 1 mM pyridoxal-5′-phosphate and 0.5% (v/v) toluene
(§4) The suspension was incubated at 30° C. for 16 hours, and then the amount of 2R-monatin and 2R-PHG thus produced were determined.

[5] = Amination reaction of IHOG with mutated BMDAT-expressing E. coli (Example 5); type: biochemical; details: 50 mM 4R,S-IHOG, 16 hours
Protocol: as §2, §3
(§5) Reaction solution of IHOG: 100 mM Tris-HCl (pH 8.0), 50 mM 4R,S-IHOG, 200 mM D-alanine, 1 mM pyridoxal-5′-phosphate and 0.5% (v/v) toluene
as §4

[6] = PHOG amination reaction with mutated BMDAT-expressing E. coli (Example 10); type: biochemical; details: 100 mM 4R,S-PHOG, 16 hours
Protocol: as §3, with “9,” for “4 as a catalyst,”, “prepared” for “collected”
Reaction solution of PHOG: 100 mM Tris-HCl (pH 8.0), 100 mM 4R,S-PHOG, 400 mM D-alanine, 1 mM pyridoxal-5′-phosphate and 0.5% (v/v) toluene
(§6) The suspension was incubated at 30° C. for 16 hours, and then the amount of 2R-monatin and 2R-PHG thus produced were analyzed.

[7] = IHOG amination reaction with mutated BMDAT-expressing E. coli (Example 10); type: biochemical; details: 100 mM 4R,S-IHOG, 16 hours
Protocol: as §3, with “9,” for “4 as a catalyst,”, “prepared” for “collected”
Reaction solution of IHOG: 100 mM Tris-HCl (pH 8.0), 100 mM 4R,S-IHOG, 400 mM D-alanine, 1 mM pyridoxal-5′-phosphate and 0.5% (v/v) toluene
as §6

[8] = DAT activity of mutated BMDAT: transamination from D-alanine to α-ketoglutaric acid, coupled lactate dehydrogenase assay; type: biochemical, E. coli; details: 10 mM D-alanine, 10 mM α-ketoglutaric acid, pH 8.0, 30° C., cell sonicate supernatant
Protocol: E. coli transformants containing each plasmid with mutated BMDAT gene or pUCBMDAT were inoculated to 3 mL of casamino acid medium (0.5 g/dL of ammonium sulfate, 0.14 g/dL of KH2PO4, 0.23 g/dL of citrate 2Na.3H2O, 0.1 g/dL of MgSO4.7H2O, 2 mg/dl of FeSO4, 2 mg/dl of MnSO4, 2 mg/dL of pyridoxine hydrochloride, 0.1 mg/dL of thiamine, 1 g/dL of casamino acid, 0.3 g/dL of glycerol, pH 7.5) containing 0.1 mg/mL of ampicillin and 0.1 mM IPTG. The medium was then cultured with shaking at 37° C. for 16 hours. Cells were collected from 1 mL of the cultured medium, washed, suspended in 1 mL of 20 mM Tris-HCl (pH 7.6), and ultrasonically disrupted at 4° C. for 30 min. The sonicates were centrifuged at 15,000 rpm for 5 minutes, and the supernatant thereof was used as an enzyme catalyst. For the measurement of the D-aminotransferase activity (hereinbelow referred to as DAT activity), the transamination activity with D-alanine as the amino donor to α-ketoglutaric acid was enzymatically measured by analyzing pyruvic acid produced from D-alanine as the reaction proceeds.
Reaction conditions: 100 mM Tris-HCl (pH 8.0), 0.2 mM NADH, 0.1 mM pyridoxal-5′-phosphate, 5 U/mL lactate dehydrogenase, 10 mM D-alanine, 10 mM α-ketoglutaric acid, 30° C. A reduction of absorbance at 340 nm was measured.

[9] = IHOG amination with washed cells of BSDAT-expressing E. coli (Example 6); type: biochemical; details: 50 mM IHOG, 200 mM D-alanine, pH 7.6, 30° C., 18 hours, cells 5% (w/v)
Protocol: E. coli transformants containing pUCBSDAT were cultivated in the LB medium (1 g/dL of bacto tryptone, 0.5 g/dL of yeast extract and 1 g/dL of NaCl) containing 0.1 mg/mL of ampicillin at 37° C. for 16 hours. Subsequently, 1 mL of thus obtained broth was added to a 500 mL Sakaguchi flask in which contains 50 mL of the LB medium, and main cultivation was performed at 37° C. After 2.5 hours of cultivation, isopropyl-1-thio-β-D-galactopyranoside (IPTG) was added thereto at a final concentration of 1 mM, and the cultivation was performed for additional 4 hours. Cells were harvested from the cultured medium and washed to prepare the cells of BSDAT-expressing E. coli.
The microbial cells prepared in the above (2) were suspended at 5% (w/v) in 1 mL of a reaction liquid composed of 100 mM Tris-HCl (pH 7.6), 50 mM IHOG, 200 mM D-alanine, 1 mM pyridoxal-5′-phosphate and 0.5% (v/v) toluene. One ml of the suspension was then transferred to a 10 mL test tube, and incubated with shaking at 30° C. for 18 hours. After the incubation, the amount of 2R-monatin thus produced was determined. As a result, 13.8 mM (2R,4R)-monatin and 12.7 mM (2R,4S)-monatin were produced from IHOG.

[10] = IHOG amination reaction with mutated BSDAT-expressing E. coli (Example 8); type: biochemical; details: 50 mM 4R,S-IHOG, 16 hours
Protocol: E. coli transformants containing each plasmid with mutated BSDAT gene or pUCBSDAT were inoculated to 3 mL of LB medium (1 g/dL of bacto tryptone, 0.5 g/dL of yeast extract and 1 g/dL of NaCl) containing 0.1 mg/mL of ampicillin and 0.1 mM isopropyl-1-thio-β-D-galactopyranoside (IPTG). The medium was then cultured with shaking at 37° C. for 16 hours. Cells were collected from the cultured medium and washed to prepare the BSDAT-expressing E. coli. Expression of each mutated BSDAT was confirmed by SDS-PAGE. The cells harvested from 250 μL of the cultured medium were resuspended in 500 μL of an SDS-PAGE sample buffer and boiled for 10 minutes for cell lysis and denaturation, and 5 to 10 μL of the supernatant obtained by centrifugation (10,000×g, 10 min.) was subjected to SDS-PAGE.
Using a series of mutated BSDAT-expressing E. coli strains prepared in Example 7, 2R-monatin was produced from 4R,S-IHOG. The microbial cells prepared by centrifuging 400 μL of the cultured medium were suspended in the reaction solution having the following composition.
as §5
The suspension was incubated at 30° C. for 16 hours, and then the amount of 2R-monatin thus produced was analyzed.

[11] = 200 mM D-alanine, pH 8.0, 30° C.
[12] = 400 mM D-alanine, pH 8.0, 30° C.

Molecule: O=C(O)C(=O)CC(O)(Cc1c[nH]c2ccccc12)C(=O)O (racemic) [4R,S-IHOG, 4-(indol-3-ylmethyl)-4-hydroxy-2-oxoglutaric acid]
- residual ratio of 4R,S-IHOG ([1]; after 16 hours): 81%
- residual ratio of 4R,S-IHOG ([1]; after 24 hours): 70%

B1: pUCBMDAT: wild-type D-aminotransferase derived from Bacillus macerans AJ1617 (SEQ ID NO:2), expressed in E. coli (protein)
chain: MAYSLWNDQIVEEGSIAISPEDRGYQFGDGIYEVIKVYNGNMFTAQEHIDRFYASAEKIRLVIPYTKDVLHKLLHELIEKNNLETGHVYFQITRGANSRNHVFPDASIPAVLTGNVKAGERAYENFEKGVKATFVEDIRWLRCDIKSLNLLGAVLAKQEAAEKGCYEAILHRGDIVTECSSANVYGIKDGKLYTHPANNFILNGITRQVILKCAEEINLPVIEEPMTKADLLTMDEIIVSSVSSEVTPVIDVDGNQIGAGVPGEWTRQLQQSFEAKLPLSMNTK
modifications: Bacillus macerans
- (2R,4R)-monatin produced [2]: 17.0 mM
- (2R,4S)-monatin produced [2]: 16.4 mM
- (2R,4R)-PHG produced [3]: 19.2 mM
- (2R,4S)-PHG produced [3]: 17.1 mM
- 2R,4R-PHG [4, 11]: 19.2 mM
- 2R,4S-PHG [4, 11]: 17.1 mM
- 4R selectivity (ratio of (2R,4R) isomer out of total 2R-PHG) ([4]; 30° C.): 53%
- 2R,4R-monatin [5, 11]: 17.0 mM
- 2R,4S-monatin [5, 11]: 16.4 mM
- 4R selectivity (ratio of (2R,4R) isomer out of total 2R-monatin) ([5]; 30° C.): 51%
- 2R,4R-PHG [6, 12]: 34.2 mM
- 2R,4S-PHG [6, 12]: 34.9 mM
- 4R selectivity ([6]; 30° C.): 49%
- 2R,4R-monatin [7, 12]: 19.1 mM
- 2R,4S-monatin [7, 12]: 18.3 mM
- 4R selectivity ([7]; 30° C.): 51%
- DAT activity [8]: 6.3 U/mg

B2: PUCBSDAT: wild-type D-transaminase derived from Bacillus sphaericus ATCC 10208 (SEQ ID NO:4), expressed in E. coli (protein, listed as Bacillus sphaericus)
chain: MAYSLWNDQIVEEGSITISPEDRGYQFGDGIYEVIKVYNGHMFTAQEHIDRFYASAEKIRLVIPYTKDVLHKLLHDLIEKNNLNTGHVYFQITRGTTSRNHIFPDASVPAVLTGNVKTGERSIENFEKGVKATLVEDVRWLRCDIKSLNLLGAVLAKQEASEKGCYEAILHRGDIITECSSANVYGIKDGKLYTHPANNYILNGITRQVILKCAAEINLPVIEEPMTKGDLLTMDEIIVSSVSSEVTPVIDVDGQQIGAGVPGEWTRKLQKAFEAKLPISINA
- (2R,4R)-monatin produced [9]: 13.8 mM
- (2R,4S)-monatin produced [9]: 12.7 mM
- 2R,4R-monatin [10, 11]: 13.8 mM
- 2R,4S-monatin [10, 11]: 12.7 mM
- 4R selectivity ([10]; 30° C.): 52%
